Measurements from US20210253718A1 (MODMAB THERAPEUTICS, published 2021).
Numbering of substitutions follows the chain as printed.

T1: FZD3 cysteine-rich domain (CRD), MYC-tagged and GPI-anchored on CHO cells (human, UniProt Q9NPG1 24-150, GPI anchor)
T1 construct: domain: cysteine-rich domain (CRD); also called FZD3 CRD; CHO-myc-FZDGPI; not shown: MYC tag and GPI anchor signal
T1 sequence (looked up): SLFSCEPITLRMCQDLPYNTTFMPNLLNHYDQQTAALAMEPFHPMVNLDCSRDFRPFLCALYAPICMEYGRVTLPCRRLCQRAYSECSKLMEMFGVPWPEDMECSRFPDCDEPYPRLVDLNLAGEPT

T2: FZD9 cysteine-rich domain (CRD), MYC-tagged and GPI-anchored on CHO cells (human, UniProt O00144 35-161, GPI anchor)
T2 construct: also called FZD9 CRD; CHO-myc-FZDGPI; not shown: MYC tag and GPI anchor signal
T2 sequence: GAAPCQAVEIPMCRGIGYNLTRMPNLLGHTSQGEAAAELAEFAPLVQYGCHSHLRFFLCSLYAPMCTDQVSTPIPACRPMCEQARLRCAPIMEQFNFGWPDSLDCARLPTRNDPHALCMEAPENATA

T3: FZD4 cysteine-rich domain (CRD), MYC-tagged and GPI-anchored on CHO cells (human, UniProt Q9ULV1 42-167, GPI anchor)
T3 construct: also called FZD4 CRD; CHO-myc-FZDGPI; not shown: MYC tag and GPI anchor signal
T3 sequence: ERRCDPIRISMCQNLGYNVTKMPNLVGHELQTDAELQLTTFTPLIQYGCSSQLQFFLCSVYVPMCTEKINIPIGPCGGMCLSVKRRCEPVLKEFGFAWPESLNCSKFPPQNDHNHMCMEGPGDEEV

T4: FZD10 cysteine-rich domain (CRD), MYC-tagged and GPI-anchored on CHO cells (human, UniProt Q9ULW2 30-156, GPI anchor)
T4 construct: also called FZD10 CRD; CHO-myc-FZDGPI; not shown: MYC tag and GPI anchor signal
T4 sequence: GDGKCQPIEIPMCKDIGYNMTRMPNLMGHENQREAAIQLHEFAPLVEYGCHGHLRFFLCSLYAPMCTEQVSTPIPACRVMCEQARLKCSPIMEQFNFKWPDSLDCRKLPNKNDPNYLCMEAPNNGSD

T5: FZD6 cysteine-rich domain (CRD), MYC-tagged and GPI-anchored on CHO cells (human, UniProt O60353 20-146, GPI anchor)
T5 construct: also called FZD6 CRD; CHO-myc-FZDGPI; not shown: MYC tag and GPI anchor signal
T5 sequence: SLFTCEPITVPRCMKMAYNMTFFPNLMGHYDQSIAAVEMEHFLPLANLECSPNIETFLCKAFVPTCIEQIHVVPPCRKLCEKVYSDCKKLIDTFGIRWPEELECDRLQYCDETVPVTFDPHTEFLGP

T6: FZD5 cysteine-rich domain (CRD), MYC-tagged and GPI-anchored on CHO cells (human, UniProt Q13467 29-156, GPI anchor)
T6 construct: also called FZD5 CRD; CHO-myc-FZDGPI; not shown: MYC tag and GPI anchor signal
T6 sequence: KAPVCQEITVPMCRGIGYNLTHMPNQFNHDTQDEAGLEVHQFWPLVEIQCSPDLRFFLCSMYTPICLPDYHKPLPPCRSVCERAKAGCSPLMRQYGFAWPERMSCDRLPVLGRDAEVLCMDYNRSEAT

T7: FZD8 cysteine-rich domain (CRD), MYC-tagged and GPI-anchored on CHO cells (human, UniProt Q498S8 31-155 (rat entry), GPI anchor)
T7 construct: also called FZD8 CRD; CHO-myc-FZDGPI; not shown: MYC tag and GPI anchor signal
T7 sequence: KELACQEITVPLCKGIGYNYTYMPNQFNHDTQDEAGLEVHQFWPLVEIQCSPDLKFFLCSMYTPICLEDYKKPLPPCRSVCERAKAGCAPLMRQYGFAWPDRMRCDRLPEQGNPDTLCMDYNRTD

B1: Fab-2906 (Fab, V domains shown)
VH: EVQLVESGGGLVQPGGSLRLSCAASGFNFSSSSIHWVRQAPGKGLEWVAYISSSYGYTYYADSVKGRFTISADTSKNTAYLQMNSLRAEDTAVYYCARTVRGSKKPYFSGWAMDYWGQGTLVTVSS
VL: DIQMTQSPSSLSASVGDRVTITCRASQSVSSAVAWYQQKPGKAPKLLIYSASSLYSGVPSRFSGSRSGTDFTLTISSLQPEDFATYYCQQWSWGFLITFGQGTKVEIK
notes: Fab; also called Fv-2906
B2: Fab-2902 (Fab, V domains shown)
VH: EVQLVESGGGLVQPGGSLRLSCAASGFNISYYYIHWVRQAPGKGLEWVASISSSSSSTSYADSVKGRFTISADTSKNTAYLQMNSLRAEDTAVYYCARGALDYWGQGTLVTVSS
VL: DIQMTQSPSSLSASVGDRVTITCRASQSVSSAVAWYQQKPGKAPKLLIYSASSLYSGVPSRFSGSRSGTDFTLTISSLQPEDFATYYCQQWYAFGALITFGQGTKVEIK
notes: Fab; also called Fv-2902
B3: Fab-2935 (Fab, V domains shown)
VH: B2 VH with S30Y, S52Y, S53P, S56G, G99A, L101F
VL: B2 VL with A93G, F94G, G95Y
notes: Fab; also called Fv-2935
B4: Fab-2923 (Fab, V domains shown)
VH: B2 VH with I29L, S30Y, I34M, S52Y, S56G, L101M
VL: B2 VL with A93G, F94Y, G95S
notes: Fab; also called Fv-2923
B5: Fab-2909 (Fab, V domains shown)
VH: B1 VH with F29I, S33Y, I34M, Y50S, Y55S, Y59S
VL: B2 VL with W91S, Y92W, A93S, F94Y, G95H, A96Y
notes: Fab; also called Fv-2909
B6: Fab-2934 (Fab, V domains shown)
VH: B2 VH with Y32S, I34M, S52Y, S56G, L101I
VL: B1 VL with S92Y, W93H, G94Y, F95G
notes: Fab; also called Fv-2934

target: T8, FZD2 cysteine-rich domain (CRD), MYC-tagged and GPI-anchored on CHO cells (human, UniProt Q14332 35-161); test: immunofluorescence, CHO-CRD cells

Binder | binding result
B1 | no binding
B2 | no binding
B3 | no binding
B4 | no binding
B5 | no binding

target: T1, FZD3 cysteine-rich domain (CRD), …; test: immunofluorescence, CHO-CRD cells

Binder | binding result
B6 | no binding
B1 | no binding
B2 | no binding
B3 | no binding
B4 | no binding
B5 | no binding

target: T2, FZD9 cysteine-rich domain (CRD), …; test: immunofluorescence, CHO-CRD cells

Binder | binding result
B6 | no binding
B1 | no binding
B2 | no binding
B3 | no binding
B4 | no binding
B5 | no binding

target: T9, FZD1 cysteine-rich domain (CRD), MYC-tagged and GPI-anchored on CHO cells (human); test: immunofluorescence, CHO-CRD cells

Binder | binding result
B1 | no binding
B2 | no binding
B3 | no binding
B4 | no binding
B5 | no binding

target: T3, FZD4 cysteine-rich domain (CRD), …; test: immunofluorescence, CHO-CRD cells

Binder | binding result
B6 | no binding
B5 | no binding

target: T4, FZD10 cysteine-rich domain (CRD), …; test: immunofluorescence, CHO-CRD cells

Binder | binding result
B6 | no binding
B2 | no binding
B3 | no binding
B4 | no binding
B5 | no binding

target: T5, FZD6 cysteine-rich domain (CRD), …; test: immunofluorescence, CHO-CRD cells

Binder | binding result
B6 | no binding
B1 | no binding
B2 | no binding
B3 | no binding
B4 | no binding
B5 | no binding

target: T10, FZD7 cysteine-rich domain (CRD), MYC-tagged and GPI-anchored on CHO cells (human, UniProt O75084 45-169); test: immunofluorescence, CHO-CRD cells

Binder | binding result
B6 | no binding
B3 | no binding
B4 | no binding

target: T6, FZD5 cysteine-rich domain (CRD), …; test: flow cytometry, CHO-CRD cells;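 further: flow cytometry of Fab binding to CHO cells overexpressing a Frizzled CRD, with binding defined as median fluorescence over twice that of CHO cells lacking any Frizzled CRD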
Experimental: (§1) Binding was measured via flow cytometry analysis of CHO cells overexpressing CRD of FZD1, FZD2, FZD3, FZD4, FZD5, FZD6, FZD7, FZD8, FZD9 or FZD10. Median fluorescence values are shown.

Binder | median fluorescence
B6 | 34.3
B1 | 30.2
B2 | 36.9
B3 | 29.2
B4 | 36.9
B5 | 31.3

target: T8, FZD2 cysteine-rich domain (CRD), …; test: flow cytometry, CHO-CRD cells;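 further: flow cytometry of Fab binding to CHO cells overexpressing a Frizzled CRD, with binding defined as median fluorescence over twice that of CHO cells lacking any Frizzled CRD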
Experimental: as §1

Binder | median fluorescence
B1 | 5.09
B2 | 8.98
B3 | 6.79
B4 | 7.91
B5 | 5.38

target: T7, FZD8 cysteine-rich domain (CRD), …; test: flow cytometry, CHO-CRD cells;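 further: flow cytometry of Fab binding to CHO cells overexpressing a Frizzled CRD, with binding defined as median fluorescence over twice that of CHO cells lacking any Frizzled CRD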
Experimental: as §1

Binder | median fluorescence
B6 | 29.4
B1 | 10.1
B2 | 13.9
B3 | 15.8
B4 | 11.9

target: T1, FZD3 cysteine-rich domain (CRD), …; test: flow cytometry, CHO-CRD cells;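 further: flow cytometry of Fab binding to CHO cells overexpressing a Frizzled CRD, with binding defined as median fluorescence over twice that of CHO cells lacking any Frizzled CRD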
Experimental: as §1

Binder | median fluorescence
B6 | 3.28
B1 | 4.03
B2 | 6.44
B3 | 4.49
B4 | 6.67
B5 | 3.43

target: T2, FZD9 cysteine-rich domain (CRD), …; test: flow cytometry, CHO-CRD cells
Experimental: as §1

Binder | median fluorescence
B6 | 2.71
B1 | 5.05
B2 | 3.96
B3 | 3.52
B4 | 4.83
B5 | 2.57

target: T9, FZD1 cysteine-rich domain (CRD), …; test: flow cytometry, CHO-CRD cells
Experimental: as §1

Binder | median fluorescence
B6 | 61.5
B1 | 5.23
B2 | 6.1
B3 | 4.07
B4 | 6.04
B5 | 4.61

target: T3, FZD4 cysteine-rich domain (CRD), …; test: flow cytometry, CHO-CRD cells
Experimental: as §1

Binder | median fluorescence
B6 | 4.78
B5 | 4.1

target: T4, FZD10 cysteine-rich domain (CRD), …; test: flow cytometry, CHO-CRD cells
Experimental: as §1

Binder | median fluorescence
B6 | 2.67
B1 | 19.8
B2 | 4.1
B3 | 3.34
B4 | 4.22
B5 | 2.71

target: T5, FZD6 cysteine-rich domain (CRD), …; test: flow cytometry, CHO-CRD cells
Experimental: as §1

Binder | median fluorescence
B6 | 2.86
B1 | 3.55
B2 | 4
B3 | 3.37
B4 | 4.33
B5 | 2.89

target: T10, FZD7 cysteine-rich domain (CRD), …; test: flow cytometry, CHO-CRD cells
Experimental: as §1

Binder | median fluorescence
B6 | 3.52
B1 | 2.92
B2 | 16
B3 | 3
B4 | 6.04
B5 | 4.57
